We go through 3 molecules from paper PMC5014651.

Data set [1] addresses NS1B C-terminal domain (residues 141-281 of NS1B, influenza B/Lee/1940) (influenza B virus (B/lee/1940)) (UniProt P03502). The data set can be described thus: NMR rotational correlation time.
The target is the same in data set [2]. In words: NMR titration.
For a further data set, the target named is T1, NS1B CTD wt (Influenza B virus (B/Lee/1940), UniProt P03502 141-281).
T1 sequence: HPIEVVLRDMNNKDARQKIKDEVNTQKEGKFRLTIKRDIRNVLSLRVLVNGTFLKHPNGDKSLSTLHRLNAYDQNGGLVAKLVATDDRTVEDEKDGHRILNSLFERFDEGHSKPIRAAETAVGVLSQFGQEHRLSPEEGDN
The data set can be described thus: fluorescence polarization. In general terms: Fluorescence polarisation rises when a labelled molecule tumbles more slowly, as on binding a larger partner.

In the next data set the target is NS1A CTD (Influenza A virus (Udorn), UniProt P03495 85-215). In words: fluorescence polarization.
Sequence of NS1A CTD (P03495 85-215): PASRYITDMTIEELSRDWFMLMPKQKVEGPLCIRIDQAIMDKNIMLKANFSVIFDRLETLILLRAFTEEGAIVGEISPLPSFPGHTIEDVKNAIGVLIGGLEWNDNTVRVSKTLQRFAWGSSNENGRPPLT

A word on the Kd: it is the constant that tells how readily two partners part at equilibrium. A lower Kd goes with tighter binding. Broadly, the stoichiometry N is a count of units in the complex or per binding partner. “NS1B C-terminal domain (residues 141-281 of NS1B, influenza B/Lee/1940) (from UniProt P03502 141-281) (domain or fragment)”: in data set [1], the dissociation constant Kd stood at 700 µM and the stoichiometry N is 2. Further, the Kd in data set [2] worked out at 600 µM.
In the data set with NS1B CTD wt, CGCCUGUAGAGGAUGG (ssRNA) [16 minus ssRNA (antisense)] registered a Kd of 0.58 ± 0.05 µM.

B1: 16-bp dsRNA (dsRNA)
RNA 1: CGCCUGUAGAGGAUGG
RNA 2: CCAUCCUCUACAGGCG
B1: in the data set with NS1B CTD wt, the Kd turned out to be 0.13 ± 0.03 µM. Besides, in the data set with NS1A CTD, the binding result was “no binding”.
